Source: patent publication US20160137713A1
Numbering of substitutions follows the chain as printed.

B1: A12-E01 (scFv, V domains shown, not shown: small tags and cut ends)
VH: EVQLVESGGGLVQPGRSLRLSCAASGFTFDEYGMHWVRQAPGKGLEWVSGVSWNSGSIAYADSVRGRFTISRDNAKNSLYLQMNSLRAEDTALYYCAKSRSMDVWGQGTTVTVSS
VL: QSALTQPASVSGSPGQSITISCTGSSSDVGGYNYVSWYQQHPGKAPKLMIYDVTKRPSGVSNRFSGSKSGNTASLTISGLQAEDEADYYGSYSNNNFYVFGTGTKVTVLG
modifications: linker not given
B2: A12-E05 (scFv, V domains shown, not shown: small tags and cut ends)
VH: B1 VH with S99G, S101I, M102L
VL: B1 VL with S93N, N95S, N96T
modifications: scFv linker not given
B3: A12-H04 (scFv, V domains shown, not shown: small tags and cut ends)
VH: B1 VH with S99G, S101L, M102L
VL: B1 VL with S91A, N95T
modifications: linker not given
B4: A12-E04 (scFv, V domains shown, not shown: small tags and cut ends)
VH: B1 VH with S99G, S101L, M102F
VL: B1 VL with N95S
modifications: linker not given

Biological target: soluble human FcRn (human) (UniProt P55899)
Sequence (P55899 24-297, chain 1 of 2): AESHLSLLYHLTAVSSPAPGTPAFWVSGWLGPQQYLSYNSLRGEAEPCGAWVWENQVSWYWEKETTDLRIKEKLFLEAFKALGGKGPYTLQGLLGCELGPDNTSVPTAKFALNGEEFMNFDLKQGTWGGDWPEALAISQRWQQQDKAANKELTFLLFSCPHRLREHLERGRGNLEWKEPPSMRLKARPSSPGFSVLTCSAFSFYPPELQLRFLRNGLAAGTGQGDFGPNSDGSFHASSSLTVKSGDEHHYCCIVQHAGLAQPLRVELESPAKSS
Sequence (P61769 21-119, chain 2 of 2, further chain): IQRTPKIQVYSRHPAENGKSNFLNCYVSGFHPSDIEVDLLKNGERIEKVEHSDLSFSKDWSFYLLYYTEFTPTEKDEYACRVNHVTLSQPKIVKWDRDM
Assay: ELISA on coated shFcRn, scFv 100 ng/mL, pH 7.4

Binder | ELISA (OD450)
B1 | 1.05
B2 | 1.8
B3 | 1.57
B4 | 1.29

Biological target: soluble human FcRn (human) (UniProt P55899)
Assay: ELISA on coated shFcRn, scFv 100 ng/mL, pH 6.0

Binder | ELISA (OD450)
B1 | 1.71
B2 | 2.06
B3 | 2.26
B4 | 1.59
